Reference: patent US20130058965A1, “INJECTABLE FORMULATIONS FOR PARENTERAL ADMINISTRATION” (MANNKIND CORPORATION, priority 2009, published 2013)

Biological target: HLA-A*0201 (Homo sapiens, UniProt P04439, D140Y/D185E/D98H/E176V/E277Q/G131W/G231S/I119V/I121R/I166T/I218V/L300P/L318F/N151K/N90K/P208A/P217A/Q86G/Q94H/R138H/R169H/T345S)
Experiment: NY-ESO-1 analogues, % peptide binding (Table 1)

Row | Substance | % Peptide Binding [%]
1 | NY-ESO-1 157-165 (S157Y, C165V) (YLLMWITQV; Peptide analogue) [SEQ ID NO:13] | 80
2 | NY-ESO-1 157-165 (S157Y, L158(Nva), C165V) [SEQ ID NO:19] | 80
